The target in the experiment is SAP (UniProt O60880). Briefly: GST-SAP pull-down, anti-myc blot. The settings on record: reference: myc-CD3ζ wild type.

Turning to CD3ζ (from UniProt P20963) Y72F, the “binding against the reference” value (sites Y72) is “weaker”.
As to “CD3ζ (from UniProt P20963) Y72F/Y83F (first ITAM)”, the “binding against the reference” value (sites Y72,Y83) is recorded as “lost”.
Turning to CD3ζ (from UniProt P20963) Y83F, the “binding against the reference” value (sites Y83) is “weaker”.

These data come from article PMC3418226.
